The results in this text go back to patent publication US20160017055A1 (Takeda / Millennium, published 2016).

The target of this experiment is T1, plasma kallikrein Mutant 2 (catalytic domain; R551A, Q553A, Y555A, T558A, R560A) (human, UniProt P03952 391-638).
T1 construct: Mutations in a subsite of the active site (printed 'S subsite')
The experiment in a line: Ki,app; inhibition of PKal catalytic domain activity, Morrison fit. As for the experimental part:
Briefly, PKal and a Fab at various concentrations are incubated together for 1 hour at 30° C. A substrate peptide (cleavable by PKal) is then added to this PKal-Fab mixture. The rate of substrate peptide cleavage/proteolysis is then measured, and plotted against the concentrations of the Fab. This plot is then fit to the Morrison equation, which calculates the K_{i,app} value.
The inhibitory activity of X₁₁₅-F02 against the wild-type PKal and the mutants were carried out using the method described in Example 2 above and the K_{i,app} values were determined.

T1 sequence (P03952 391-638 C503S/R551A/Q553A/Y555A/T558A/R560A limits assumed): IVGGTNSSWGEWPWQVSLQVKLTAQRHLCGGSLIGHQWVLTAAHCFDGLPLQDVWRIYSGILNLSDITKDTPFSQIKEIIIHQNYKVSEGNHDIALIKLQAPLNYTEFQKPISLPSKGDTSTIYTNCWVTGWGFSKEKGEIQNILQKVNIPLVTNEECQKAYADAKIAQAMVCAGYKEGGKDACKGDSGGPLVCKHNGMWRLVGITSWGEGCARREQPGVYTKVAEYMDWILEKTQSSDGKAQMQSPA

B1: X115-F02 (antibody, human IgG1, kappa, V domains shown)
VH: EVQLLESGGGLVQPGGSLRLSCAASGFTFSHYIMMWVRQAPGKGLEWVSGIYSSGGITVYADSVKGRFTISRDNSKNTLYLQMNSLRAEDTAVYYCAYRRIGVPRRDEFDIWGQGTMVTVSS
VL: DIQMTQSPSTLSASVGDRVTITCRASQSISSWLAWYQQKPGKAPKLLIYKASTLESGVPSRFSGSGSGTEFTLTISSLQPDDFATYYCQQYNTYWTFGQGTKVEIKR
For B1, the “fold reduction of inhibitory potency (Ki,app) against wild-type PKal” value is around 65 fold.
